Results taken from patent US4609626A, “Method for producing S-adenosyl-L-homocysteine hydrolase” (Nippon Zeon Co., Ltd., priority 1983, dated 1986).
Values belong to the molecule of their own block, whether it stands above or below them.

Tests used:
[1] = target: T1, S-adenosyl-L-homocysteine hydrolase (SAHase) from Alcaligenes faecalis (IFO 12669) (Alcaligenes faecalis, UniProt A0A2U2BLR9); settings: read-out: Km for SAH; purified crystalline SAHase of Example 1
T1 sequence (A0A2U2BLR9 1-465): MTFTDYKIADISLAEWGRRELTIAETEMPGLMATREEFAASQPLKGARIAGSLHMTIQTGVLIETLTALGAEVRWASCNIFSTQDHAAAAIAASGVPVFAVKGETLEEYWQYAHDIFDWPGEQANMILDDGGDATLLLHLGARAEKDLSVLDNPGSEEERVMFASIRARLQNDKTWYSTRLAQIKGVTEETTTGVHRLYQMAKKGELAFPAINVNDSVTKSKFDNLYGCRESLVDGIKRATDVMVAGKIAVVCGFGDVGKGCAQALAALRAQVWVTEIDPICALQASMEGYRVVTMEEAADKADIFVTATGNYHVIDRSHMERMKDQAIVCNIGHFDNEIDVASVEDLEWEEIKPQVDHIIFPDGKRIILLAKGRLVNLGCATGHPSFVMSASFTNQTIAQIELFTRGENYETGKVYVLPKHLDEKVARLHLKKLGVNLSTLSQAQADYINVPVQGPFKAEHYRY
Experimental: (§1) Then, the reaction is stopped by adding 0.1 ml of 30% perchloric acid. Then, 0.9 ml of 0.5M phosphate buffer (pH 7.0) was added to the reaction mixture. The resulting precipitate is removed by centrifugal separation. The supernatant obtained is analyzed by high-performance liquid chromatography (Model 638-30 made by Hitachi Limited; column Cosmocil 5C18 ; eluent 0.2M KH2 PO4 /methanol=90/10 (V/v); detector UV 260 nm) to determine the amount of SAH produced. The SAH synthesizing enzyme activity is expressed in units. One unit is defined as the amount of the enzyme which is required to form 1 micromole of SAH per minute.
(§2) SAH is reacted with SAHase, and the resulting AdR is converted to inosine in the presence of an excess of adenosine deaminase. The speed of the decrease of the absorbance at 265 nm at this time is measured. Specifically, 475 microliters of 10 mM phosphate buffer, 10 microliters of 2.5 mM SAH, 5 microliters of adenosine deaminase (Type III produced by Sigma Company) and 10 microliters of an enzyme solution are reacted at 25° C., and the speed of the decrease of the absorbance at 265 nm at this time is measured to determine the amount of SAH hydrolyzed. The SAH hydrolysis enzyme activity is expressed in units. One unit is defined as the amount of the enzyme which is required to hydrolyze 1 micromole of SAH per minute.

[2] = substrate: Nc1ncnc2c1ncn2[C@@H]1O[C@H](CO)[C@@H](O)[C@H]1O; assay: purified protein, by the assay type; settings: other: purified crystalline SAHase of Example 1
Experimental: as §1, §2

[3] = substrate: N[C@@H](CCS)C(=O)O; assay: purified protein, by the assay type; settings: other: purified crystalline SAHase of Example 1

Km [1]: 10 µM
Molecule: Nc1ncnc2c1ncn2[C@@H]1O[C@H](CSCC[C@H](N)C(=O)O)[C@@H](O)[C@H]1O [SAH, S-adenosyl-L-homocysteine]

B1: S-adenosyl-L-homocysteine hydrolase (SAHase) from Alcaligenes faecalis (IFO 12669) (Alcaligenes faecalis) (protein)
chain: T1 sequence (A0A2U2BLR9 1-465)
Km [2]: 37 µM | Km [3]: 930 µM
